Results: the supplement of paper PMC10567573

B1: SNX8 (parent)
chain: RMVPALPPKRMLGADREFIEARRR

Variants of: B1
Assay: protein stability index of a GFP-peptide fusion (GPS, HEK-293T) (PSI 1-6); higher = more stable
Details: c terminus: a fixed tail appended
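Further: lentivirally expressed fusions sorted by FACS into six bins by GFP to DsRed ratio, PSI derived from sequencing read proportions per bin multiplied by bin number.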

Protein stability index: each site, then its substitutions
R10: H 4.21 | G 4.16 | Y 3.71 | S 4.05 | F 3.39 | A 4.23 | K 3.81 | N 3.98 | E 4.84 | I 3.94 | C 3.61 | V 4.04 | P 4.44 | M 4.06 | Q 4.39 | D 4.61 | L 3.5 | T 4.24
V3: T 4.1 | N 4.08 | M 1.29 | R 3.94 | W 1.7 | P 3.81 | I 2.38 | S 3.88 | Q 3.9 | Y 2.96 | K 4.11 | L 1.85
M11: H 3.52 | V 3.37 | F 3.36 | K 3.94 | D 4.62 | S 4.23 | L 3.69 | E 3.91 | Y 2.99 | W 2.54 | N 3.77 | C 3.46 | P 4.42 | A 3.86 | I 4.78 | Q 3.6 | T 4.27 | R 4.58 | G 4.28
P7: D 3.87 | F 3.4 | H 3.75 | A 3.58 | K 3.91 | C 2.91 | E 4.35 | L 3.18 | T 3.6 | M 3.52 | Y 3.49 | W 3.3 | N 3.45 | V 4.05 | S 4.08 | Q 3.5 | G 4.01 | I 3.62 | R 3.76
L6: D 4.44 | G 3.88 | F 3.45 | C 3.67 | E 4.52 | W 3.15 | Q 4.02 | T 3.63 | I 3.96 | A 4 | K 3.73 | Y 3.39 | R 4.3 | N 3.96 | S 4.84 | M 3.73 | V 3.97
P8: I 3.02 | M 3.06 | N 3.79 | K 3.87 | T 3.31 | S 3.73 | A 4.23 | V 3.44 | W 3.31 | R 3.88 | Q 3.79 | C 2.77 | G 3.53 | F 3.18 | H 3.85 | Y 3.88 | E 3.86 | L 3.17 | D 3.82
L12: D 4.54 | E 5.11 | C 3.91 | F 4.12 | G 4.66 | A 4.53
K9: N 4.26 | M 3.81 | F 3.83 | W 4.02 | P 4.37 | S 4.35 | E 4.12 | D 4.12 | Y 3.95 | I 4.17 | C 2.95 | G 3.6 | A 4.09 | R 2.99 | Q 4.73 | L 4.01 | V 4.61 | T 3.64 | H 4.53
P4: Q 3.49 | G 3.87 | I 2.52 | L 2.28 | W 2.77 | T 3.34 | R 4.13 | E 3.67 | F 2.98 | D 3.57 | C 3.62 | M 3.1 | V 3.58 | H 3.09 | N 3.41 | A 3.32 | K 3.81 | S 3.69 | Y 3.31
A5: E 4.12 | L 4 | Y 3.12 | T 3.81 | I 3.2 | D 4.23 | H 3.75 | V 4.01 | F 3.24 | G 3.84 | P 3.59 | Q 4.1 | C 3.85 | K 3.77 | W 3.06 | S 4.05 | R 4.31 | N 4.08 | M 3.49
